For test [1], the target named is T1, human CXCR4-enriched lipoparticles (LEV101, Integral Molecular) (human, UniProt P61073 1-352).
T1 construct: Bought reagent; CXCR4 held in lipoparticles captured by biotinylated WGA on an SA chip; also called Lipoparticles containing CXCR4 proteins
Put plainly: biosensor kinetic titration, Fab over captured human CXCR4 lipoparticles. As for the experimental part: The binding affinity of each Fab was determined using human CXCR4-enriched lipoparticles (LEV101, Integral Molecular, Philadelphia Pa.). Biotinylated WGA (Sigma Aldrich, St. Louis Mo.)) can be coated on the SA chip to facilitate capturing lipoparticles containing CXCR4 proteins. […] J. Mol. Recognit.

Test [2] deals with T2, human CXCR4 (chemokine (C-X-C motif) receptor 4) (human, UniProt P61073 1-352).
T2 construct: Endogenous on human tumour cell lines (Ramos, HPB-ALL, Raji, Jurkat, MM1.S, RPMI-8226, MOLP-8, MOLT-4) or transfected into CHO-K1 cells (DiscoveRx); also called CXCR4 receptor
T2 sequence (P61073 whole entry): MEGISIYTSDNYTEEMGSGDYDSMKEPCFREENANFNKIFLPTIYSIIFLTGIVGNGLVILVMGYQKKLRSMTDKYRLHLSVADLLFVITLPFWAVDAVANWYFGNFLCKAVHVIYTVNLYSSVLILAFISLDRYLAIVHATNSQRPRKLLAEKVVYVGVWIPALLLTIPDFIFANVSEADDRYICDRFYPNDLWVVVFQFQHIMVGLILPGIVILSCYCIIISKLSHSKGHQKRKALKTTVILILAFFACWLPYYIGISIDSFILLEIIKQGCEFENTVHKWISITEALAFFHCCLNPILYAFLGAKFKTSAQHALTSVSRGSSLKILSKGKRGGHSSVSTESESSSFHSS
The test can be described thus: flow cytometry on HPB-ALL cells, Fab at 2.5 µg/ml. For orientation: In flow cytometry, cells or beads pass a laser one at a time.

Test [3] concerns the target T2, human CXCR4 (chemokine (C-X-C motif) …). Put plainly: flow cytometry on HPB-ALL cells, Fab at 0.25 µg/ml.
The target is the same in test [4]. Put plainly: flow cytometry on HPB-ALL cells, Fab at 0.25 µg/mL. Here is the method: Binding of CXCR4 Fabs to CXCR4-expressing cells were measured by flow cytometry on HPB-ALL (Human T cell leukemia) cells. 150,000 HPB-ALL cells were resuspended in 100 uL FACS buffer (1×PBS+0.5% BSA) on 96 well plates. […] After removing the primary antibodies the cells were washed twice with FACS buffer and then resuspended in FACS buffer and 2 uL (3 ug) of 2nd Ab (Alexa Fluor 647-conjugated goat anti-human IgG, F(ab′)2 specific, Jackson ImmunoResearch Laboratories, West Grove Pa.) was then added to each well. The plates were incubated at 4 degree for another 30 min. Fluorescence signals were acquired by cell analyzer LSRII (BD Biosciences, San Jose Calif.).

The target is the same in test [5]. The test can be described thus: cell-based or functional assay.
For test [6] the target is unchanged. The test can be described thus: cell-based or functional assay. The source holds these as a separate data set.

T1 sequence (P61073 whole entry): as above

B1: h3G10.A57 VH / h3G10.2.72 VL Fab (Fab, V domains shown)
VH: EVQLVESGGGLVQPGGSLRLSCAASGFTFSDYYMSWVRQAPGKGLEWVGFIRHKANFYTTEYSTSVKGRFTISRDDSKNSLYLQMNSLKTEDTAVYYCARDLPGFAYWGQGTLVTVSS
VL: DIVMTQSPDSLAVSLGERATINCKSSQSLFNSRTRKNYLAWYQQKPGQPPKLLIYWASARESGVPDRFSGSGSGTDFTLTISSLQAEDVAVYYCKQSFRLRTFGGGTKVEIK
notes: Tested as Fab
As for B1, in test [1], the Kd – broadly, the equilibrium constant for the complex coming apart – was determined as 1.12 nM; the koff (commonly a measure of how fast the partners let go of each other) was 0.0013 s⁻¹; the kon (commonly a measure of how fast the partners come together) was found to be 1.1e+06 M⁻¹ s⁻¹; the t½ (as a rule, how long it takes for the measured level to halve) was found to be 9 min. The MFI in test [2] came to 4330. In test [3], this molecule showed an MFI of 1220. Besides, the MFI in test [4] is 2770.

B2: humanized anti-CXCR4 antibody h3G10.2.37.2.72 (antibody, V domains shown)
VH: EVQLVESGGGLVQPGGSLRLSCAASGFTFSDYYMSWVRQAPGKGLEWVGFIRHKANFYTREYSTSVKGRFTISRDDSKNSLYLQMNSLKTEDTAVYYCARDLPGFAYWGQGTLVTVSS
VL: DIVMTQSPDSLAVSLGERATINCKSSQSLFNSRTRKNYLAWYQQKPGQPPKLLIYWASARESGVPDRFSGSGSGTDFTLTISSLQAEDVAVYYCKQSFRLRTFGGGTKVEIK
Regarding B2, the “IC50 (M), Calcium Flux Activity (average of 3 experiments)” value (“IC50 (M), Calcium Flux Activity” for short) in test [5] stood at 1.36e-09 M. Also, in test [6], the “EC50 (M), cAMP assay, CHO-K1 cells transfected with human CXCR4” value turned out to be 3.41e-08 M.

B3: h3G10.A57 VH / h3G10.A58A VL Fab (Fab, V domains shown)
VH: EVQLVESGGGLVQPGGSLRLSCAASGFTFSDYYMSWVRQAPGKGLEWVGFIRHKANFYTTEYSTSVKGRFTISRDDSKNSLYLQMNSLKTEDTAVYYCARDLPGFAYWGQGTLVTVSS
VL: DIVMTQSPDSLAVSLGERATINCKSSQSLFNSHTRKNYLAWYQQKPGQPPKLLIYWASARGSGVPDRFSGSGSGTDFTLTISSLQAEDVAVYYCKQSFRLRTFGGGTKVEIK
notes: Tested as Fab
B3: in test [1], the Kd is 0.39 nM, the koff came to 0.00063 s⁻¹, the kon is 1.6e+06 M⁻¹ s⁻¹ and the “t½” value was determined as 18.2 min. In test [2], this molecule gave an MFI of 7400. The MFI in test [3] worked out at 3610. This molecule also came in with an MFI in test [4] of 3890.

B4: humanized anti-CXCR4 antibody h3G10.1.91.A58A (antibody, V domains shown)
VH: EVQLVESGGGLVQPGGSLRLSCAASGFTFSDYYMSWVRQAPGKGLEWVGFIRHKANFETTEYSTSVKGRFTISRDDSKNSLYLQMNSLKTEDTAVYYCARDLPGFAYWGQGTLVTVSS
VL: DIVMTQSPDSLAVSLGERATINCKSSQSLFNSHTRKNYLAWYQQKPGQPPKLLIYWASARGSGVPDRFSGSGSGTDFTLTISSLQAEDVAVYYCKQSFRLRTFGGGTKVEIK
Regarding B4, the “IC50 (M), Calcium Flux Activity” value in test [5] turned out to be 2.35e-09 M.

B5: humanized anti-CXCR4 antibody h3G10.A57.A58A (antibody, V domains shown)
VH: EVQLVESGGGLVQPGGSLRLSCAASGFTFSDYYMSWVRQAPGKGLEWVGFIRHKANFYTTEYSTSVKGRFTISRDDSKNSLYLQMNSLKTEDTAVYYCARDLPGFAYWGQGTLVTVSS
VL: DIVMTQSPDSLAVSLGERATINCKSSQSLFNSHTRKNYLAWYQQKPGQPPKLLIYWASARGSGVPDRFSGSGSGTDFTLTISSLQAEDVAVYYCKQSFRLRTFGGGTKVEIK
On to B5, for which, in test [5], the “IC50 (M), Calcium Flux Activity” value is 1.31e-09 M. Also, in test [6], the “EC50 (M), cAMP assay, CHO-K1 cells transfected with human CXCR4” value was determined as 2.43e-08 M.

B6: humanized anti-CXCR4 antibody h3G10 (antibody, V domains shown)
VH: EVQLVESGGGLVQPGGSLRLSCAASGFTFSDYYMSWVRQAPGKGLEWVGFIRHKANGYTTEYSTSVKGRFTISRDDSKNSLYLQMNSLKTEDTAVYYCARDLPGFAYWGQGTLVTVSS
VL: DIVMTQSPDSLAVSLGERATINCKSSQSLFNSRTRKNYLAWYQQKPGQPPKLLIYWASARESGVPDRFSGSGSGTDFTLTISSLQAEDVAVYYCKQSFNLRTFGGGTKVEIK
In the case of B6, the “IC50 (M), Calcium Flux Activity” value in test [5] is 2e-09 M.

B7: humanized anti-CXCR4 antibody h3G10.A57 (antibody, V domains shown)
VH: EVQLVESGGGLVQPGGSLRLSCAASGFTFSDYYMSWVRQAPGKGLEWVGFIRHKANFYTTEYSTSVKGRFTISRDDSKNSLYLQMNSLKTEDTAVYYCARDLPGFAYWGQGTLVTVSS
VL: DIVMTQSPDSLAVSLGERATINCKSSQSLFNSRTRKNYLAWYQQKPGQPPKLLIYWASARESGVPDRFSGSGSGTDFTLTISSLQAEDVAVYYCKQSFNLRTFGGGTKVEIK
In the case of B7, in test [5], the “IC50 (M), Calcium Flux Activity” value is 1.69e-09 M.

B8: h3G10.1.91 VH / h3G10.2.72 VL Fab (Fab, V domains shown)
VH: EVQLVESGGGLVQPGGSLRLSCAASGFTFSDYYMSWVRQAPGKGLEWVGFIRHKANFETTEYSTSVKGRFTISRDDSKNSLYLQMNSLKTEDTAVYYCARDLPGFAYWGQGTLVTVSS
VL: DIVMTQSPDSLAVSLGERATINCKSSQSLFNSRTRKNYLAWYQQKPGQPPKLLIYWASARESGVPDRFSGSGSGTDFTLTISSLQAEDVAVYYCKQSFRLRTFGGGTKVEIK
notes: Tested as Fab
Turning to B8, in test [1], the Kd was determined as 0.33 nM, the koff worked out at 0.00049 s⁻¹, the kon is 1.5e+06 M⁻¹ s⁻¹ and the “t½” value was 23.5 min. In test [2], the MFI is 7020. In test [3], this molecule yielded an MFI of 2670. The molecule further registered an MFI in test [4] of 2350.

B9: h3G10.A57 VH / h3G10.A58B VL Fab (Fab, V domains shown)
VH: EVQLVESGGGLVQPGGSLRLSCAASGFTFSDYYMSWVRQAPGKGLEWVGFIRHKANFYTTEYSTSVKGRFTISRDDSKNSLYLQMNSLKTEDTAVYYCARDLPGFAYWGQGTLVTVSS
VL: DIVMTQSPDSLAVSLGERATINCKSSQSLFNSHTRKNYLAWYQQKPGQPPKLLIYWASARGSGVPDRFSGSGSGTDFTLTISSLQAEDVAVYYCKQSFNLRTFGGGTKVEIK
notes: Tested as Fab
As to B9, in test [1], the Kd is 0.75 nM, the dissociation rate constant (koff) is 0.000515 s⁻¹, the kon turned out to be 688000 M⁻¹ s⁻¹ and the “t½” value came out at 22.4 min. This molecule also registered an MFI in test [4] of 3090.

B10: h3G10 VH / h3G10 VL Fab (Fab, V domains shown)
VH: EVQLVESGGGLVQPGGSLRLSCAASGFTFSDYYMSWVRQAPGKGLEWVGFIRHKANGYTTEYSTSVKGRFTISRDDSKNSLYLQMNSLKTEDTAVYYCARDLPGFAYWGQGTLVTVSS
VL: DIVMTQSPDSLAVSLGERATINCKSSQSLFNSRTRKNYLAWYQQKPGQPPKLLIYWASARESGVPDRFSGSGSGTDFTLTISSLQAEDVAVYYCKQSFNLRTFGGGTKVEIK
notes: Tested as Fab; also called h3G10 Fab
As to B10, in test [1], the affinity, expressed as Kd, was 1.9 nM; the koff came to 0.003 s⁻¹; the kon worked out at 1.6e+06 M⁻¹ s⁻¹; the “t½” value was 3.9 min. In addition, the MFI in test [2] is 2460. Also, in test [3], the MFI was found to be 563. The molecule also yielded an MFI in test [4] of 1360.

B11: h3G10.2.37 VH / h3G10.A58B VL Fab (Fab, V domains shown)
VH: EVQLVESGGGLVQPGGSLRLSCAASGFTFSDYYMSWVRQAPGKGLEWVGFIRHKANFYTREYSTSVKGRFTISRDDSKNSLYLQMNSLKTEDTAVYYCARDLPGFAYWGQGTLVTVSS
VL: DIVMTQSPDSLAVSLGERATINCKSSQSLFNSHTRKNYLAWYQQKPGQPPKLLIYWASARGSGVPDRFSGSGSGTDFTLTISSLQAEDVAVYYCKQSFNLRTFGGGTKVEIK
notes: Tested as Fab
Regarding B11, in test [1], binding was put at a Kd of 0.56 nM, the off-rate (koff) worked out at 0.000449 s⁻¹, the kon was found to be 797000 M⁻¹ s⁻¹ and the “t½” value amounted to 25.7 min. The same molecule had an MFI in test [4] of 4550.

B12: h3G10.2.37 VH / h3G10.2.72 VL Fab (Fab, V domains shown)
VH: EVQLVESGGGLVQPGGSLRLSCAASGFTFSDYYMSWVRQAPGKGLEWVGFIRHKANFYTREYSTSVKGRFTISRDDSKNSLYLQMNSLKTEDTAVYYCARDLPGFAYWGQGTLVTVSS
VL: DIVMTQSPDSLAVSLGERATINCKSSQSLFNSRTRKNYLAWYQQKPGQPPKLLIYWASARESGVPDRFSGSGSGTDFTLTISSLQAEDVAVYYCKQSFRLRTFGGGTKVEIK
notes: Tested as Fab
For B12, in test [1], the affinity, expressed as Kd, was 0.35 nM; the off-rate constant (koff) was 0.0008 s⁻¹; the kon is 2.3e+06 M⁻¹ s⁻¹; the “t½” value came to 14.4 min. The same molecule gave an MFI in test [2] of 6240. Further, the MFI in test [3] was 2920. The molecule further gave an MFI in test [4] of 2890.

B13: h3G10.A57 VH / h3G10 VL Fab (Fab, V domains shown)
VH: EVQLVESGGGLVQPGGSLRLSCAASGFTFSDYYMSWVRQAPGKGLEWVGFIRHKANFYTTEYSTSVKGRFTISRDDSKNSLYLQMNSLKTEDTAVYYCARDLPGFAYWGQGTLVTVSS
VL: DIVMTQSPDSLAVSLGERATINCKSSQSLFNSRTRKNYLAWYQQKPGQPPKLLIYWASARESGVPDRFSGSGSGTDFTLTISSLQAEDVAVYYCKQSFNLRTFGGGTKVEIK
notes: Tested as Fab; also called h3G10.A57 VH / h3G10 L
Turning to B13, in test [1], the affinity, expressed as Kd, was 1.22 nM; the koff worked out at 0.00143 s⁻¹; the kon was found to be 1.17e+06 M⁻¹ s⁻¹; the “t½” value came out at 8.08 min. In test [2], this molecule came in with an MFI of 4060. This molecule also had an MFI in test [3] of 868. The molecule further displayed an MFI in test [4] of 1340.

Values taken from patent US20150037328A1 (Pfizer, published 2015).
